Data: article PMC12777564, “Proposal of metagenomic-origin LRA-5 as a precursor of active β-lactamases through Tyr69Gln and Val166Glu amino acid substitutions: a functional and structural analysis” (Antimicrobial Agents and Chemotherapy, 2025)

Columns and labels:
[1] = test system: CO/N=C(\C(=O)N[C@@H]1C(=O)N2C(C(=O)[O-])=C(C[N+]3(C)CCCC3)CS[C@H]12)c1csc(N)n1; test: steady-state hydrolysis kinetics with pure enzyme (Km), no-enzyme control; type: biochemical, uncultured bacterium BLR5
Excerpt: steady-state hydrolysis kinetics with pure enzyme (Km), no-enzyme control on LRA-5 | The exceptions were nitrocefin and, strikingly, cefepime.

[2] = test system: C[C@H]1[C@H](NC(=O)/C(=N\OC(C)(C)C(=O)O)c2csc(N)n2)C(=O)N1S(=O)(=O)O; test: purified protein, by the assay type; set-up: steady-state beta-lactam hydrolysis kinetics with purified LRA-5; Km (apparent Km via nitrocefin competition for poor substrates); conditions: pH 7.5
Protocol: (§1) For low Km values, the kcat values were derived by complete hydrolysis time courses as described by De Meester et al. ([41]). For poor substrates that behave as competitive inhibitors, the Ki was obtained by monitoring the residual activity of the enzyme in the presence of various concentrations of the drug and 100 µM nitrocefin as reporter substrate; the corrected Ki (considered the observed or apparent Km) value was finally determined using equation 2: The kinetic parameters of wild-type LRA-5 and its double substituted variant LRA-5^Y69Q/V166E are shown in Table 3. […] This behavior is expected considering that this variant lacks Glu166, which is essential to orient the deacylation water molecule during the regeneration stage of the active site. The exceptions were nitrocefin and, strikingly, cefepime. This behavior deserves more in-depth analysis. […] Overnight cultures of recombinant E. coli BL21(DE3) cells expressing wild-type LRA-5 and LRA-5^Y69Q/V166E were diluted (1/50) in 500 mL Lysogeny Broth (LB) supplemented with 30 µg/mL kanamycin and grown at 37°C until 0.6–0.8 OD units (λ = 600 nm) was reached. At this point, 1 mM isopropyl β-D-thiogalactopyranoside (IPTG) was added, and cultures were resumed for growing overnight at 20°C (200 rpm stirring). Then, cell pellets were obtained after centrifugation at 8,000 rpm for 20 min (4°C) in a Sorvall RC-5C (GS3 rotor) and resuspended in 20 mM Tris buffer (pH 7.5) + 500 mM NaCl (buffer A). Crude extracts were obtained by ultrasonic disruption (9 cycles of 5 min, 40% potency, 20 pulses/min, on ice bath) and clarified by centrifugation at 10,000 rpm for 20 min (4°C, SS34 rotor). Clarified supernatants were filtrated through 0.45 µm pore-size membranes, and loaded onto 5 mL HisTrap HP affinity columns (GE Healthcare Life Sciences, USA), connected to an ÄKTA-purifier (GE Healthcare, Uppsala, Sweden), and equilibrated with buffer A. The column was extensively washed to remove unbound proteins, and the LRA-5 proteins were eluted using a linear gradient (0%–100%; 1 mL/min flow rate) of buffer B consisting of buffer A + 500 mM imidazole (pH 7.5). Eluted fractions were analyzed by SDS-PAGE in 15% polyacrylamide gels. Fractions containing the pure LRA-5 variants were dialyzed against buffer A, and the histidine tag was removed by thrombin digestion (16 h at 25°C), using 10 U thrombin per mg protein for complete proteolysis, and later by affinity purification using 1 mL HisTrap HP columns (GE Healthcare Life Sciences, USA), following the same conditions as before (the pure LRA-5 is recovered in the pass-through, while the His-tag and any uncleaved fractions remain attached to the column). The protein purity was assessed by Coomassie blue staining on 15% SDS polyacrylamide gels, and protein concentration was determined by UV absorbance at 280 nm and calculated according to the Lambert-Beer law. The fractions of purified enzymes were stored at −80°C for subsequent kinetics and crystallographic assays.

[3] = test system: CC(=O)OCC1=C(C(=O)O)N2C(=O)[C@@H](NC(=O)Cc3cccs3)[C@H]2SC1; test: purified protein, by the assay type; set-up: steady-state beta-lactam hydrolysis kinetics with purified LRA-5; Km (apparent Km via nitrocefin competition for poor substrates); conditions: pH 7.5
Protocol: as §1

[4] = test system: O=C(Cc1cccs1)N[C@@H]1C(=O)N2C(C(=O)O)=C(/C=C/c3ccc([N+](=O)[O-])cc3[N+](=O)[O-])CS[C@H]12; test: purified protein, by the assay type; set-up: steady-state beta-lactam hydrolysis kinetics with purified LRA-5; Km (apparent Km via nitrocefin competition for poor substrates); conditions: pH 7.5
Protocol: as §1

[5] = test system: CC1(C)S[C@@H]2[C@H](NC(=O)[C@H](N)c3ccccc3)C(=O)N2[C@H]1C(=O)O; test: purified protein, by the assay type; set-up: steady-state beta-lactam hydrolysis kinetics with purified LRA-5; Km (apparent Km via nitrocefin competition for poor substrates); conditions: pH 7.5
Protocol: as §1

[6] = test system: CO/N=C(\C(=O)N[C@@H]1C(=O)N2C(C(=O)O)=C(CSc3nc(=O)c(=O)[nH]n3C)CS[C@H]12)c1csc(N)n1; test: purified protein, by the assay type; set-up: steady-state beta-lactam hydrolysis kinetics with purified LRA-5; Km (apparent Km via nitrocefin competition for poor substrates); conditions: pH 7.5
Protocol: as §1

LRA-5 = target: T1, LRA-5 (uncultured bacterium BLR5, UniProt B5L5W7); test: biochemical; set-up: time-dependent inactivation of purified LRA-5 by clavulanate, 100 uM nitrocefin as reporter substrate; conditions: wild-type LRA-5
T1 construct: gene blaLRA-5
Protocol: For irreversible inhibitors like clavulanic acid, the rate constant of inactivation, kinact, was measured directly by time-dependent inactivation of LRA-5 variants using a fixed concentration of enzyme and 100 µM nitrocefin as reporter and increasing concentrations of the inhibitor. The observed rate constant for inactivation (kobs) was determined by nonlinear least-squares fitting of the data using equation 3, as described elsewhere ([42]). […] This behavior is not entirely striking, as it may be related to the fact that the absence of Glu166 in the wild-type variant could still favor the inhibition of clavulanate, due to the absence of the water molecule that normally “competes” with inhibitors during acylation ([29]). Overnight cultures of recombinant E. coli BL21(DE3) cells expressing wild-type LRA-5 and LRA-5^Y69Q/V166E were diluted (1/50) in 500 mL Lysogeny Broth (LB) supplemented with 30 µg/mL kanamycin and grown at 37°C until 0.6–0.8 OD units (λ = 600 nm) was reached. […] Eluted fractions were analyzed by SDS-PAGE in 15% polyacrylamide gels. […] The protein purity was assessed by Coomassie blue staining on 15% SDS polyacrylamide gels, and protein concentration was determined by UV absorbance at 280 nm and calculated according to the Lambert-Beer law. […]

[7] = test system: C[C@@H](O)[C@H]1C(=O)N2C(C(=O)O)=C(SCCN=CN)C[C@H]12; test: steady-state hydrolysis kinetics with pure enzyme (Km); type: biochemical, uncultured bacterium BLR5
[8] = test system: C[C@@H](O)[C@H]1C(=O)N2C(C(=O)O)=C(S[C@@H]3CN[C@H](C(=O)N(C)C)C3)[C@H](C)[C@H]12; test: as above; type: biochemical, uncultured bacterium BLR5
[9] = test system: CC(=O)OCC1=C(C(=O)O)N2C(=O)[C@@H](NC(=O)Cc3cccs3)[C@H]2SC1; test: as above; type: biochemical, uncultured bacterium BLR5
[10] = test system: O=C(Cc1cccs1)N[C@@H]1C(=O)N2C(C(=O)O)=C(/C=C/c3ccc([N+](=O)[O-])cc3[N+](=O)[O-])CS[C@H]12; test: as above; type: biochemical, uncultured bacterium BLR5
[11] = test system: CC1(C)S[C@@H]2[C@H](NC(=O)[C@H](N)c3ccccc3)C(=O)N2[C@H]1C(=O)O; test: as above; type: biochemical, uncultured bacterium BLR5
[12] = test system: CO/N=C(\C(=O)N[C@@H]1C(=O)N2C(C(=O)O)=C(CSc3nc(=O)c(=O)[nH]n3C)CS[C@H]12)c1csc(N)n1; test: as above; type: biochemical, uncultured bacterium BLR5

T1 sequence (B5L5W7 entry or part of it): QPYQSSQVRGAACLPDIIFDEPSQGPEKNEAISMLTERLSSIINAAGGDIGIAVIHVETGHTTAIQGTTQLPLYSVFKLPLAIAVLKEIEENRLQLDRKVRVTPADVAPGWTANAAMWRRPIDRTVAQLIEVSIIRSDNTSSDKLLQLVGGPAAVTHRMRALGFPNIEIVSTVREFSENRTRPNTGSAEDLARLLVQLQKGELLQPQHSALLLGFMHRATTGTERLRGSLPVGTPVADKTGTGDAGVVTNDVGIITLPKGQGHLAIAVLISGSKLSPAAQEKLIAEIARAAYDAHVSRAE

Molecule: LRA-5 (uncultured bacterium BLR5)
- Km [1]: 10.0 ± 0.5 µM
- kcat [1]: 0.02 ± 0.006 s⁻¹
- kcat/Km [1]: 2000 ± 100 M⁻¹ s⁻¹
- kcat [2]: 2e-05 ± 3e-06 s⁻¹
- kcat/Km [2]: < 0.02 M⁻¹ s⁻¹
- Km [3]: 35 ± 4 µM
- kcat [3]: 0.005 ± 0.0008 s⁻¹
- kcat/Km [3]: 143 ± 28 M⁻¹ s⁻¹
- Km [4]: 8 ± 2 µM
- kcat [4]: 0.045 ± 0.001 s⁻¹
- kcat/Km [4]: 5600 ± 1400 M⁻¹ s⁻¹
- Km [5]: 65 ± 13 µM
- kcat [5]: 0.01 ± 0.002 s⁻¹
- kcat/Km [5]: 154 ± 44 M⁻¹ s⁻¹
- Km [6]: 11 ± 2 µM
- kcat [6]: 3.6e-06 ± 6e-07 s⁻¹
- kcat/Km [6]: 0.32 ± 0.08 M⁻¹ s⁻¹

Molecule: O=C(O)[C@H]1/C(=C/CO)O[C@@H]2CC(=O)N21 [Clavulanate]
- kinact (LRA-5; read-out: LRA-5 (wild-type) / kcat (s^−1) / NH / kinact): 0.005 ± 0.0001 s⁻¹
- kinact/KI (LRA-5; read-out: LRA-5 (wild-type) / kcat/Km (M^−1 s^−1) / ND / kinact/K): 833 ± 102 M⁻¹ s⁻¹

Molecule: LRA-5^Y69Q/V166E (uncultured bacterium BLR5; V199E/Y100Q)
- Km [7]: 3.0 ± 0.1 µM
- kcat [7]: 0.006 ± 0.0002 s⁻¹
- kcat/Km [7]: 1920 ± 86 M⁻¹ s⁻¹
- Km [8]: 5.0 ± 0.6 µM
- kcat [8]: 0.003 ± 0.0007 s⁻¹
- kcat/Km [8]: 600 ± 157 M⁻¹ s⁻¹
- Km [9]: 14 ± 3 µM
- kcat [9]: 0.025 ± 0.001 s⁻¹
- kcat/Km [9]: 1780 ± 389 M⁻¹ s⁻¹
- Km [10]: 32 ± 4 µM
- kcat [10]: 4.8 ± 0.3 s⁻¹
- kcat/Km [10]: 150000 ± 21000 M⁻¹ s⁻¹
- Km [11]: 4.0 ± 0.2 µM
- kcat [11]: 0.002 ± 0.0006 s⁻¹
- kcat/Km [11]: 500 ± 152 M⁻¹ s⁻¹
- Km [12]: 29 ± 9 µM
- kcat [12]: 0.107 ± 0.01 s⁻¹
- kcat/Km [12]: 3690 ± 1200 M⁻¹ s⁻¹
